2 molecules from publication PMC3244446, “Soluble CD44 Interacts with Intermediate Filament Protein Vimentin on Endothelial Cell Surface” (PLoS ONE, 2011) can be followed below.

Common to all, as to settings: both partners purified
In assay [1] the target is T1, recombinant full length human vimentin, His-tagged (human, UniProt P08670 1-466).
T1 construct: vimentin, human, full length; The oligomeric state in the assays is not measured; the discussion supposes unit-length filaments; also called recombinant vimentin; source: expressed using pET15b vector
Put plainly: ITC; 50 mM Tris, 150 mM NaCl, pH 8.0, 25°C; two preparations of CD443MUT (A, B), two pairs of concentrations each; n is vimentin/CD443MUT (mol/mol). Background: Isothermal titration calorimetry measures the heat released or taken up as one component is titrated into another.

Assay [2] concerns the target T1, recombinant full length human vimentin, …. Put plainly: SPR; Biacore3000; vimentin amine-coupled to CM5 chip; CD443MUT 0.46–123 µM injected; 50 mM Tris, 150 mM NaCl, pH 8.0; parallel two-site binding model and equilibrium analysis (equation 1). (In SPR one partner is held on a chip, and binding of the other changes the refractive index at the surface.)
Assay [3] has the same target. Described as above. This is another data set of the same source.
For assay [4] the target is unchanged. The assay can be described thus: pull-down; GST-CD44HABD or GST-CD443MUT with recombinant vimentin.

By stoichiometry N is commonly meant a count of units in the complex or per binding partner.

Positions count from the first letter of the chain named. “And” between values parts separate entries of the source, which are not always exact repeats. Equal entries are not always repeated.

T1 sequence (P08670 whole entry): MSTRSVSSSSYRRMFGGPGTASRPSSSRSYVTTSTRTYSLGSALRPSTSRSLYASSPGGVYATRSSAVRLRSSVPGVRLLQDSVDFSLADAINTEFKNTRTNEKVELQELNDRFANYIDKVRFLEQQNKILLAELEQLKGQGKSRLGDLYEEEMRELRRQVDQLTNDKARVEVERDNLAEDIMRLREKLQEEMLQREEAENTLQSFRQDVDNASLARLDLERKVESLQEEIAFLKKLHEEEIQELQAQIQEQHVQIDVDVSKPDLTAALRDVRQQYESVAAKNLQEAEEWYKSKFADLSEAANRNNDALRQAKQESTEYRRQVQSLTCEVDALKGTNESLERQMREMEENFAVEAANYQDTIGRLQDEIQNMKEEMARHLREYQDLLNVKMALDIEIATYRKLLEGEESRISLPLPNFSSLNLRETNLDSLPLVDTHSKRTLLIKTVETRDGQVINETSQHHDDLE

B1: CD443MUT (CD44HABD^R41AR78SY79S), recombinant, unlabeled (domain or fragment, human, UniProt P16070 21-132, looked up)
chain: QIDLNITCRFAGVFHVEKNGAYSISRTEAADLCKAFNSTLPTMAQMEKALSIGFETCSSGFIEGHVVIPRIHPNSICAANNTGVYILTSNTSQYDTYCFNASAPPEEDCTSV
notes: Two preparations (A, B) were used in ITC; also called CD44HABD Arg41Ala, Arg78Ser, Tyr79Ser triple mutant; source: expressed using pET11c vector
For B1, the “stoichiometry N” value in assay [1] was 9.9 mol/mol and 7.2 mol/mol. Besides, in assay [2], the “KD from equilibrium response values (equation 1)” value was 15 ± 2 µM, the “KD of the high-affinity site (Kdiss1/Kass1)” value is 0.074 µM and the “stoichiometry N” value amounted to 6.2 mol/mol. Moreover, the “KD of the low affinity site” value in assay [3] was determined as 15 µM.

B2: GST-tagged CD44 hyaluronan binding domain 21–132 (CD44HABD) (domain or fragment, human, UniProt P16070 21-132, looked up)
chain: B1 chain with A21R, S58R, S59Y
notes: also called GST-HABD; CD44 HABD 21–132; source: recombinant GST fusion-protein, purified as described [27]
As for B2, in assay [4], the binding result was “binds”.
